Assay results reported in patent US20260184782A1 (TWIST BIOSCIENCE, published 2026).
Blank lines part the entries; values can stand above or below the binder they belong to.

Key:
TIGIT on PBMCs = target: T1, TIGIT on PBMCs (UniProt Q495A1 22-244, limits assumed); experiment: cell-based or functional assay
T1 sequence (looked up): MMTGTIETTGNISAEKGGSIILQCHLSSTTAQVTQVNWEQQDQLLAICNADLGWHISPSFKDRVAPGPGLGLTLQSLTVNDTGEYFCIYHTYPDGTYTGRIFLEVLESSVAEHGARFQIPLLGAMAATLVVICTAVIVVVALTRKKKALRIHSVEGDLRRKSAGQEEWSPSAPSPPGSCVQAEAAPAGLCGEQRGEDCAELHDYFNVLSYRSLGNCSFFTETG

human TIGIT-Fc [1] = target: T2, human TIGIT-Fc (human, UniProt Q495A1 22-141, limits assumed); experiment: CD155 competition ELISA, titration
T2 construct: not shown: Fc; not described
T2 sequence (looked up): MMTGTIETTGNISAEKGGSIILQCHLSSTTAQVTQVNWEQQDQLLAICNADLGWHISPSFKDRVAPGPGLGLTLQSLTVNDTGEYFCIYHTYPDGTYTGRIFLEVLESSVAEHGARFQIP
Procedure: (§1) TIGIT/CD155 inhibition of VHH-Fcs were assessed using an ELISA assay (Table 10B). Briefly, human TIGIT-Fc was coated on a plate & then incubated with VHH-Fcs and human CD155-biotin. Bound CD155-biotin was detected using a streptavidin-HRP conjugate visualized with TMB. Strong inhibitors from the single point screen were titrated to determine EC50 (Table 10C).

human TIGIT-Fc [2] = target: T2, human TIGIT-Fc; experiment: CD155 competition ELISA, single point
Procedure: as §1

TIGIT = target: T3, TIGIT (UniProt Q495A1 22-141, limits assumed); experiment: Carterra SPR, VHH-Fc
T3 construct: construct not described; also called T cell immunoreceptor with Ig and ITIM domains
T3 sequence (looked up): T2 sequence (looked up)

[3] = target: T4, TIGIT (T cell immunoreceptor with Ig and ITIM domains) (UniProt Q495A1 22-141, limits assumed); experiment: SPR (Carterra), VHH-Fc
T4 sequence (looked up): T2 sequence (looked up)
Source text: The Carterra SPR system was used to assess binding affinity and affinity distribution for VHH-Fc variants. […] Table 5A provides specific values for the VHH-Fc clones for ELISA, Protein A (mg/ml), and KD (nM). FIG. 7A and FIG. 7B depict TIGIT affinity distribution for the VHH libraries, over the 20-4000 affinity threshold (FIG. 7A; monovalent KD) and the 20-1000 affinity threshold (FIG. 7B; monovalent KD).

[4] = target: T4, TIGIT (T cell immunoreceptor with Ig …); experiment: ELISA, VHH-Fc clone on TIGIT

T-cell activation EC50 (TIGIT on PBMCs): 88.1 nM
EC50 (human TIGIT-Fc [1]): 135 nM
OD (450 nm) (human TIGIT-Fc [2]): 0.0781 OD
B1: TIGIT-SC63 (Fc fusion)
VHH: EVQLVESGGGLVQPGGSLRLSCAASGRAIGSYGMGWFRQAPGKEREFVATISVSGVYTYYADSVKGRFTISADNSKNTAYLQMNSLKPEDTAVYYCARATPGGVVPWGQGTLVTVSS
notes: VHH-Fc

T-cell activation EC50 (TIGIT on PBMCs): 2.08 nM
EC50 (human TIGIT-Fc [1]): 0.303 nM
OD (450 nm) (human TIGIT-Fc [2]): 0.0846 OD
B2: TIGIT-SC58 (Fc fusion)
VHH: EVQLVESGGGLVQPGGSLRLSCAASGFTLGYYVMGWFRQAPGKEREFVATINWSGTLTSYADSVKGRFTISADNSKNTAYLQMNSLKPEDTAVYYCARWVGPKYYFDYWGQGTLVTVSS
notes: VHH-Fc

T-cell activation EC50 (TIGIT on PBMCs): 7.11 nM
EC50 (human TIGIT-Fc [1]): 0.971 nM
OD (450 nm) (human TIGIT-Fc [2]): 0.111 OD
B3: TIGIT-SC97 (Fc fusion)
VHH: EVQLVESGGGLVQPGGSLRLSCAASGTAASFNPMGWFRQAPGKEREFVAAISWSGGSTNYADSVKGRFTISADNSKNTAYLQMNSLKPEDTAVYYCVTYSAYDFRNAWGQGTLVTVSS
notes: VHH-Fc

Kd (TIGIT): 68 nM
kon (TIGIT): 1e+09 M⁻¹ s⁻¹
B4: TIGIT-29-01 VHH-Fc (Fc fusion)
chain: EVQLVESGGGLVQAGGSLRLSCAASGRTFSNYAMGWFRQAPGKEREFVAAITWSGTRTDYADSVKGRFTISADNAKNTVYLQMNSLKPEDTAVYYCAAAAWTIYEYDYWGQGTQVTVSSGGGGSEPKSSDKTHTCPPCPAPELLGGPSVFLFPPKPKDTLMISRTPEVTCVVVDVSHEDPEVKFNWYVDGVEVHNAKTKPREEQYNSTYRVVSVLTVLHQDWLNGKEYKCKVSNKALPAPIEKTISKAKGQPREPQVYTLPPSREEMTKNQVSLTCLVKGFYPSDIAVEWESNGQPENNYKTTPPVLDSDGSFFLYSLTVDKSRWQQGNVFSCSVMHEALHNHYTQKSLSLSPG
notes: also called 29-1

Kd [3]: 68 nM
ELISA [4]: 10.4
B5: TIGIT-29-01 (Fc fusion)
chain: B4 chain
notes: VHH-Fc; also called 29-1

T-cell activation EC50 (TIGIT on PBMCs): 7.53 nM
EC50 (human TIGIT-Fc [1]): 0.423 nM
OD (450 nm) (human TIGIT-Fc [2]): 0.0781 OD
B6: TIGIT-SC24 (Fc fusion)
VHH: EVQLVESGGGLVQPGGSLRLSCAASGFTFDRSWMGWFRQAPGKEREVVASITSGGSTYYADSVKGRFTISADNSKNTAYLQMNSLKPEDTAVYYCAADVWYGSTWRNWGQGTLVTVSS
notes: VHH-Fc
